Assay results published in the DeepSol protein solubility set.

Assay: soluble on expression in E. coli; label from the status in PepcDB or PDB records

Sequence	soluble on expression in E. coli
MSRGTQACINAAHTVSGIIGDLDTTIMFATAGTLHSDGDGSFADHREHILQTAKALVEDTKVLVTGAAGTQDQLANAAQNAVSTITQLAEAVKRGACSLGSTQPDSQVMVINAVKDVASALGDLINCTKLASGKSINDPSMQDLKESARVMVLNVSSLLKTVKAVEDEHTRGTRAMEATVEAISQEIRALEHHHHHHHH	soluble
MSRLSEPSPYVEFDRRQWRALRMSTPLALTEEELVGLRGLGEQIDLLEVEEVYLPLARLIHLQVAARQRLFAATAEFLGEPQQNPDRPVPFIIGVAGSVAVGKSTTARVLQALLARWDHHPRVDLVTTDGFLYPNAELQRRNLMHRKGFPESYNRRALMRFVTSVKSGSDYACAPVYSHLHYDIIPGAEQVVRHPDILILEGLNVLQTGPTLMVSDLFDFSLYVDARIEDIEQWYVSRFLAMRTTAFADPESHFHHYAAFSDSQAVVAAREIWRTINRPNLVENILPTRPRATLVLRKDADHSINRLRLRKL	soluble
MSRPLSIALISETYPPEVNGVANTLGRLHAGLQQLGHRVQVVRPRQPGDDGRRSDAELVLTRGWPLPGYPGLQWGMSSLHKLLRCWKRQRPDVLYIATEGPLGFSALRAARRLGIPAVSGFHTNFQQYSEHYGFGPLTRLVTGYLRWFHNRTQMTLVPSGSQRMELQRRGFERLNLLSRGVDSQLFHPSRRDPELRRRWGLGEQDIAVLHVGRLAAEKNLGLLGGTFRALCAAHPQLKLRLVLVGDGPERKHLERDLPEALFCGVQRGETLAAHYASGDLFLFPSLSETFGNVVLEAQAAGLAVVAFDQAAAGQHIRHGHNGVLAAPGDKSGFVEVASWLLDDQERLRRVRLNARQHASRQGWDSIVEHFQNYLEDACASPLVQPARSKPERPPAEDGGALPRSRELEHHHHHH	not soluble
MSRPRKRLAGTSGSDKGLSGKRTKTENSGEALAKVEDSNPQKTSATKNCLKNLSSHWLMKSEPESRLEKGVDVKFSIEDLKAQPKQTTCWDGVRNYQARNFLRAMKLGEEAFFYHSNCKEPGIAGLMKIVKEAYPDHTQFEKNNPHYDPSSKEDNPKWSMVDVQFVRMMKRFIPLAELKSYHQAHKATGGPLKNMVLFTRQRLSIQPLTQEEFDFVLSLEEKEPS	soluble
MSRSPDAKEDPVECPLCMEPLEIDDINFFPCTCGYQICRFCWHRIRTDENGLCPACRKPYPEDPAVYKPLSQEELQRI	soluble
MSRTAKPQNGRRRFLRDVVRTAGGLAAVGVALGLQQQTARASGVRLRPPGALNENVFASACVRCGQCVQACPYDTLKLATLASGLSAGTPYFVARDIPCEMCEDIPCAKVCPSGALNKDIASIDDSRMGLAVLLDQENCLNFQGLRCDVCYRECPKIDEAITLELDRNMRTGKHARFLPTVHSDACTGCGKCEKVCVLEQPAIKVLPLSLAKGELGHHYRFGWLEGKDGKS	not soluble
MSRTMAEVNRLLKKTAGLINKDTESPFQGEFRVGVDLGTADIQTIVLDADGNPLAGFMDWANVVRDGVVVDFFGASQIVREQVRRASAKLGIQIEQVTTSFPPGTDSRISTNVIEAAGLEVAGVIDEPSSVAQLLQLDHAAVVDIGGGTTGTAIIEEGRVVRSMDDATGGRHITLTLAGHFGLPYEEAEEMKRTSKDLALCRLAAPVIAKMADIVHGHIAGHKVPAIYLTGGSCALPGFLEVFAAEFPGIEIVMPSHPLYLTPLAIATYSDVLQTREQRVGLEHHHHHH	not soluble
MSSAGEANCAMIGGSLSAARQLDGSVIGMCALPNGKRCSEQSLAAGSCGSY	not soluble
MSSALTDLFPLPIVQAPMAGGVSVPQLAAAVCEAGGLGFLAAGYKTADGMYQEIKRLRGLTGRPFGVNVFMPQPELAESGAVEVYAHQLAGEAAWYETELGDPDGGRDDGYDAKLAVLLDDPVPVVSFHFGVPDREVIARLRRAGTLTLVTATTPEEARAVEAAGADAVIAQGVEAGGHQGTHRDSSEDDGAGIGLLSLLAQVREAVDIPVVAAGGIMRGGQIAAVLAAGADAAQLGTAFLATDESGAPGPHKRALTDPLFARTRLTRAFTGRPARSLVNRFLREHGPYAPAAYPDVHHLTSPLRKAAAKAGDAQGMALWAGQGHRMARELPAGRLVEVLAAELAEARTALSDASRENESRKGHHHHHH	soluble
MSSAPNDDCEIDKGTPSTASLFTTLMLSQPSSSTAVLQCTYCGSSCTSSQLQTCLFCGTVAYCSKEHQQLDWLTHKMICKSLQTSGMVPSNLMPQAAPAVMAPIPPTVSFDDPALTTSLLLSLQNNPILNQTISNFPPTFSITSKTEPEPSIPIQIPQRISSTSTVPFSSEGSAFKPYRNTHVFNSISSESMSSMCTSHEASLEHMSSASLAMFPTSSTAQSDISRLAQVLSLAGDSPASLALVTTSVPSTASTATIPPPATTTSSATSSGKSETITVGKEKIIQTDDPDIQIIETEGGSKPTVSRTRKRPTPSNSADPKINYKDHNKNVVYSTTLQEHQKHLQNRGLALSIHQAMVLRLRYIAEHVIRSLNEFGWAVVDNFLGSDHYKFTAKEIERLYERGLFSPGQLMEAKHKDEFHIKDIRSDHIYWYDGYDGRAKDAATVRLLISMIDSVIQHFKKRIDHDIGGRSRAMLAIYPGNGTRYVKHVDNPVKDGRCITTIYYCNENWDMATDGGTLRLYPETSMTPMDIDPRADRLVFFWSDRRNPHEVMPVFRHRFAITIWYMDKSERDKALAKGKESDAACASKKENDPTSSSLNSLIGSLLRPRKNPSTHDLSKLDLRLFPSTSSDPALVSAADEDRVDISADFQSTSSLAHPESTDSGVSLSTFNVAHNHMERTTSLQSISDHFRSERSHERRSSTSSDQDLDEGLPPPPSTNPEYYI	not soluble
MSSARRCLFGRPTPEQRSRTRIWLEDAVKRMRQEESQKWGFDFELETPLPSSAGFVYEVIPENCVPEFYRTKVLTVRTTCSSLDISSTTLTPLSSPSTSDKEEPSLMDPNSSFEDEEEPKKWQFREPPTPRKTPTKRQQKMTDFMAVSRKKNSLSPNKLSPVNVIFTPKSRRPTIRTRSSCSPY	not soluble
MSSATTNSKIIHATRQHVYEALTQKEALEFWLAPDQMTGKIHDFDLSVGGGYTMSLFYTDNSIKGKTSGNEDRYTSTFIELQPYEKVVHSITFQSEKKEFEEAMIMEVFLEEKGKDVTNVTIFFKNIPAGITPEDNEAGTKESLDKLARYLENNNRSASEKKLEHHHHHH	soluble
MSSDDEIYNENNDLDEEFSDDMDQQSGSSGESQGKANYEILDPTALESDMSKTISEVQAILQVEPGICRILLHKFKWNKDRLLDKFYEHSDTTEFLAEAQVIPKTSSSEEAAGSSAPPPGGDAECDVCCSMTRLSGLACAHRACDECWKAYLTEKIVDVGQSEIECMMMDCKLLIEDEKVMSYITDPFVIAAYRKLIISSYVETNSQLKWCPGAGCGKAVKGEPSDREPAVCTCGERFCFACAQDWHDPLSCRHMKMWRKKCSDDSETLNWINANTKPCPKCSVTIEKNGGCNHMSCKSSSCRYEFCWLCLGDWKNHAQCNRYVEDDNKTDSRSLSRKNLQRYLFYYNRFMAHQNSMKLEGKLYAKVEVKMDLMQALSMSWIEVQFLRRAVDALCECRRTLKYAYAFAYYLEANNMTTLFETNQSDLELATEQLSGMLEGDLEDNDLAELKRKVQDKYRYVELRRKKMLDHCAEGVELDSWVFCE	not soluble
MSSDNEIEDLKRAFIFALRKKFPRDSSSSIAIATVNLIRKIIFRENPKTMNDLQVSLANHCKKLHGAERSELIIINIGLMITKLARDEVLQKKGGGEPEPLYTLWRDDDETIKKLKTADMKKIKKDLQASIKELVTEIESSRECIASQSTELLFNNDVVLVHSLRSSQTMHNFLSHAVKSGRKHRVIDVVDEEEHIESTPDFATAIELYEVASKMPEASKVVLVAAAYFPDGSCLVPAGGHQIALLAKRHCVPVYVLAPFYKLCPFFMTNPDSLHTFRSNSLPFDLSAKSAGLVDCLHPAFDCLQSDLVTLFVSNTSCVIPSHVNRLKEDYYHSQDIADY	not soluble
MSSDPWGRVDETGTVYVRTADGEQVVGSWQAGSPDEALAYFERKYEGLVVEIGLLEKRVKTTDLSAKDAQTAIDHIREQVDAHHAVGDLDVLRKRLDKLVETVAARREERKAQRAKQSDEARHAKESLVVEAEELAQSDQWRAAGERLRSLVDTWKGLPRLDRKSDDELWHRFSHARSAFSKRRKAHFASLDAQREDARKAKEKLVAEAEALSGSTDWGPTAARYRELMGDWKAAGRAQREHEDDLWNRFRGAQDVFFAARSSVFAERDAEQSENLKLKEELAEEAEKLLPISDLKAARAAFRSLNERWEAIGHVPRDARPKVEGRMHAVERALQESEEVEWRRTNPEARARAEGLTGQLQAAVDKLQGQIEAARSAGNNAKADKLQKELDGRQALLDQALKGLHEFGG	not soluble
MSSIDIVIPNYNYGRFLKGCVESVLGQNIADMRILIIDNASTDDSVAISRSLAAANPRIETSLRARNLGGHASFNAGIDWARADYFAIICADDVLSPGALARAMEALDNNPGAHMAFGRTAFFRDDAEIASGLHSDADGMRLHRGMDFIANICATGRSPVQGPLAVTRTHIQQHAGHYRPALRHTDDVEMWMRLAVLGDIVELDAVQNFTRIHGANQSAILDNVLAWNAEIEAALESFFGNEGALLADAKTLLRRGRASLSDRAYWCALSNLVRRRPGAGALLAQAFRLRPASALLPPISYLMRRPDALHRIRAAIARRLEHHHHHH	not soluble
MSSKHEILNALKLSALTNHPMPSIDVAPRVEDLVGQFETNLKTVAGTLHREGGLAALQAKVDELIAQGLQVISLVEGVTANRDVPPTAHELRDIDYAVIPGDVGVAENGAIWVNNKNLGHRVTPFICENLILALPIHKIVPNMHQAAKEVTLDAGEFGVFIAGPSKTADIEQALVVGAHGACSLNVYLV	soluble
MSSNENSDDVPEQRQIVRRSRVYNPRDPSSPEPPYDPYPPGIHAQAGCATRPISAHIVPQALIEPIRLHREEDELAGTSSCRPVPQCDFNLESDRWEEDQLENPQIKSQWKGSETRPVANFARRQQRVLRTDWKHVDVQITVWEELKKVLEAAEIVDVTLNMMKTLNPDTKAMWLLKFHTTSLTEYLEDFESRAEYFNEMLLELDGIHPDLFTECSNYISQLKDVTHSRELQAVQVHLPKAVKNSDAQKVRFYLQLAGEAKKDIAVVLNNNKVKTLLIDNGFTL	not soluble
MSSPSGSSRTFPQYQSGSGWNAMLPKRTPRTAAPARRHFKSLVIGAGYTGLAAARRLAELQPQDQVLVVDATVAGEGSAGRNSGFLINLPHNTRMSGHHSPLEVARKQIAMLQSGLDWLAQLSGQGGFDCGWDLAGKYHAAATADGEQSLRGALQQYGQWGVAYSELDRDALQAQLGTRYYRFGYHSMNNVFVQPAALIRGLADSLPENVWLTEDNPVLSIDGSGPYKVRTRGGEFTADNVILANNAFARRLGFLRSRLVTIFTYAGVTPVLSPAQQALLGERDQWGVIPANRLGTTLRRISGGRFMVRSAYSYEAEQPLERMEQLLRDSFVRRYPDLAAHDFEYVWSGSTGLTGNGASFVGAIQPGLYASVGCNGAGVIKGTIYGKLLGEQVAGHRSAMLDDLASFEKPNWLPPEPLRRIGALSTIAYQARKAGLEKLEHHHHHH	soluble
MSSQPNQSLIDGIRCLQYLVSSDRAIGCRELARLMDINTTRVNRLLMTMASIGLTMQDEHRRYLPGPGIHALAAQAIRGSALFSHALPILERHAPKDIVVALGVLWEDQIIYIYHSTPGSQGSQALAGFRMYPAWQSVPGVALLAAESDEALMQRFTPEQWRNLAPHVAQQRQRGYVLWHHADGEVSMAQPLGKHAAALAFAGMWRIDEAEAAARLQALKALNQLIAQ	not soluble
MSSQSNTGNSIEAPQLPIPGQTNGSANVTVDGAGVNVGIQNGSQGQKTGMDLYFDQALNYMGEHPVITGFGAFLTLYFTAGAYKSISKGLNGGKSTTAFLKGGFDPKMNSKEALQILNLTENTLTKKKLKEVHRKIMLANHPDKGGSPFLATKINEAKDFLEKRGISK	soluble
